Patent US20230250185A1 (ARCELLX, published 2023)
Positions count from the first letter of the chain named. Numbers in names are those of the source. Like-named read-outs stand apart in the source and are kept apart here.

B1: 5S5W D domain as MBP fusion (designed binder)
chain: MGSWSEFNMRLDAIYERLTALGGSEAELAAFEKEIAAFESELQAYKGKGNPEVEWLRHSAARIRLELQAYRHN
notes: not shown: limits, linker and position relative to the D dom
B2: 5B7L D domain as MBP fusion (designed binder)
chain: B1 chain with S5I, T19V, H58K, S59V, R62N
notes: as for B1
B3: 8W9C D domain as MBP fusion (designed binder)
chain: MGSWDEFGRRLYAIEWRLYALGGSEAELAAFEKEIAAFESELQAYKGKGNPEVEKLREIAAVIRSNLQAYRHN
notes: Expressed in E. coli and assayed from leak-out supernatant; also called wild-type (8W9C); parental 8W9C; not shown: limits, linker and position relative to the D dom
B4: Adapter protein comprising the 8W9C D domain and P26(Q26-V229) AFP polypeptide (designed binder)
chain: B3 chain
B5: Adapter protein comprising the 1F9I D domain and P26(Q26-V229) AFP polypeptide (designed binder)
chain: B3 chain with R17Q, L21Q, S24T, I59L, S65E
B6: 1J1K D domain as MBP fusion (designed binder, not shown: large carriers; small tags and cut ends)
chain: B3 chain with G8S
notes: also called 8W9C (G8S)
B7: 6Z5E D domain as MBP fusion (designed binder, not shown: large carriers; small tags and cut ends)
chain: B3 chain with N50S
notes: also called 8W9C (N50S)
B8: 4H2H D domain as MBP fusion (designed binder, not shown: large carriers; small tags and cut ends)
chain: B3 chain with K48I, K55N
notes: also called 8W9C (K48I, K55N)

Tests used:
[1] = target: T1, CD123-Fc (Sino Biological) (human, UniProt P26951 19-305); assay: ELISA, serial dilution of MBP fusion normalized for protein concentration; readout CD123-Fc Binding (A450)
T1 construct: Bought reagent; not shown: Fc part of the bought fusion (detected with anti-human Fc HRP)
T1 sequence: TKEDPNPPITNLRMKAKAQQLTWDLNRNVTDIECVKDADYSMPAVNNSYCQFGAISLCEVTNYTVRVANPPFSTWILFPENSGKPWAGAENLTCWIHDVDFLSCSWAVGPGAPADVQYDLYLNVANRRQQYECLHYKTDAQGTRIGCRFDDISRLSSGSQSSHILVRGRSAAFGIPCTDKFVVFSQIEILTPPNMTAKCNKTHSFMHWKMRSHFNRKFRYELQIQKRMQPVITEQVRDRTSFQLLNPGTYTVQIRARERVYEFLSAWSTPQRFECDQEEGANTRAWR

[2] = target: T1, CD123-Fc (Sino Biological); assay: as above; remark: listed apart in the source
[3] = target: T1, CD123-Fc (Sino Biological); assay: BLI (Octet RED386): CD123-Fc captured on AHC sensor, Adapter in solution 500-0.69 nM, 25 C, global 1:1 fit

Row | Binder | EC50 [1] | EC50 [2] | Kd [3] | koff [3] | kon [3]
1 | B1 | 57.9 ng/mL | 68.7 ng/mL |  |  | 
2 | B2 | 3.72 ng/mL | 5.12 ng/mL |  |  | 
3 | B3 | 6.97 ng/mL | 7.47 ng/mL |  |  | 
4 | B4 |  |  | 5.2 nM | 0.000924 s⁻¹ | 177000 M⁻¹ s⁻¹
5 | B5 |  |  | 7.6 nM | 0.000646 s⁻¹ | 85200 M⁻¹ s⁻¹
6 | B6 |  | 3.69 ng/mL |  |  | 
7 | B7 | 3.26 ng/mL |  |  |  | 
8 | B8 | 5.4 ng/mL |  |  |  | 
